In PMC9482650, “Quantitative fragmentomics allow affinity mapping of interactomes” (Nature Communications, 2022):

Biological target: T1, APBA1_1, Q02410
T1 sequence (Q02410 651-752, limits assumed, looked up): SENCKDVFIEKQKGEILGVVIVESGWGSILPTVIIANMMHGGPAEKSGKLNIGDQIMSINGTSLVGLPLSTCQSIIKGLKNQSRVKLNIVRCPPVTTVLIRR
Test: holdup assay
Set-up: key: below the threshold = too weak to quantify, mostly under pKd 3.1 to 4
Conditions: plain residues with an end cap or a label only (N-terminal biotin on a linker: ttds)

Binder	pKd
IYVPEAQTRL [DLGAP4, Q9Y2H0]	below the threshold
TVASEKESVM [SLC1A5, Q15758]	below the threshold
PKTPPTDTSV [KIR3DL3, Q8N743]	below the threshold

Biological target: T2, APBA2_1, Q99767
T2 sequence (Q99767 563-664, limits assumed, looked up): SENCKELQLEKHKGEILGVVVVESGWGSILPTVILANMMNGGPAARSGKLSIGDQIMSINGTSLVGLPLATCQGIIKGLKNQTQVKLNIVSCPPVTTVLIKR
Test: holdup assay
Set-up: key: below the threshold = too weak to quantify, mostly under pKd 3.1 to 4
Conditions: plain residues with an end cap or a label only (N-terminal biotin on a linker: ttds)

Binder	pKd
IYVPEAQTRL [DLGAP4, Q9Y2H0]	below the threshold
TVASEKESVM [SLC1A5, Q15758]	below the threshold
PKTPPTDTSV [KIR3DL3, Q8N743]	below the threshold

Biological target: T3, ARHGAP21, Q5T5U3
T3 sequence (Q5T5U3 45-169, limits assumed, looked up): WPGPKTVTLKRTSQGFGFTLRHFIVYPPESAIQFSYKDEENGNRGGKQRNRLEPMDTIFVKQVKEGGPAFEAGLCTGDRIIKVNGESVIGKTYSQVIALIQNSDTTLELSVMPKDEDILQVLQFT
Test: holdup assay
Set-up: key: below the threshold = too weak to quantify, mostly under pKd 3.1 to 4
Conditions: plain residues with an end cap or a label only (N-terminal biotin on a linker: ttds)

Binder	pKd
IYVPEAQTRL [DLGAP4, Q9Y2H0]	below the threshold
TVASEKESVM [SLC1A5, Q15758]	below the threshold
PKTPPTDTSV [KIR3DL3, Q8N743]	3.61

Biological target: T4, DLG3_3, Q92796
T4 sequence (Q92796 374-475, limits assumed, looked up): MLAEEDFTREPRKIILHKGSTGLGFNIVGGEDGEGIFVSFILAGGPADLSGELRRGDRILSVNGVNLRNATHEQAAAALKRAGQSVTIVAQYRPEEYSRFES
Test: holdup assay
Set-up: key: below the threshold = too weak to quantify, mostly under pKd 3.1 to 4
Conditions: plain residues with an end cap or a label only (N-terminal biotin on a linker: ttds)

Binder	pKd
IYVPEAQTRL [DLGAP4, Q9Y2H0]	below the threshold
TVASEKESVM [SLC1A5, Q15758]	3.66
PKTPPTDTSV [KIR3DL3, Q8N743]	below the threshold

Biological target: DLG4_1, P78352
Test: holdup assay
Set-up: key: below the threshold = too weak to quantify, mostly under pKd 3.1 to 4
Conditions: plain residues with an end cap or a label only (N-terminal biotin on a linker: ttds)

Sequence of DLG4_1, P78352 (P78352 62-152): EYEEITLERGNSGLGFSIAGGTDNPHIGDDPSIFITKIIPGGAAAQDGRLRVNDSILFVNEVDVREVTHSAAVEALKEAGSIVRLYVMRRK

Binder	pKd
IYVPEAQTRL [DLGAP4, Q9Y2H0]	below the threshold
TVASEKESVM [SLC1A5, Q15758]	3.56
PKTPPTDTSV [KIR3DL3, Q8N743]	4.04

Biological target: FRMPD4, Q14CM0
Test: holdup assay
Set-up: key: below the threshold = too weak to quantify, mostly under pKd 3.1 to 4
Conditions: plain residues with an end cap or a label only (N-terminal biotin on a linker: ttds)

Sequence of FRMPD4, Q14CM0 (Q14CM0 67-160): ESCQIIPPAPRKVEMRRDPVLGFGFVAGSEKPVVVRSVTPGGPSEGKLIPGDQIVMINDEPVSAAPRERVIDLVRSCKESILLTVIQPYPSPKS

Binder	pKd
IYVPEAQTRL [DLGAP4, Q9Y2H0]	4.25
TVASEKESVM [SLC1A5, Q15758]	below the threshold
PKTPPTDTSV [KIR3DL3, Q8N743]	3.78

Biological target: GRID2IP_2, A4D2P6
Test: holdup assay
Set-up: key: below the threshold = too weak to quantify, mostly under pKd 3.1 to 4
Conditions: plain residues with an end cap or a label only (N-terminal biotin on a linker: ttds)

Sequence of GRID2IP_2, A4D2P6 (A4D2P6 272-370): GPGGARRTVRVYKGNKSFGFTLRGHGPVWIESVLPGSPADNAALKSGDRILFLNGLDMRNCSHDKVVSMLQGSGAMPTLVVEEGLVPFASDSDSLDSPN

Binder	pKd
IYVPEAQTRL [DLGAP4, Q9Y2H0]	4.08
TVASEKESVM [SLC1A5, Q15758]	3.7
PKTPPTDTSV [KIR3DL3, Q8N743]	below the threshold

Biological target: GRIP2_3, Q9C0E4
Test: holdup assay
Set-up: key: below the threshold = too weak to quantify, mostly under pKd 3.1 to 4
Conditions: plain residues with an end cap or a label only (N-terminal biotin on a linker: ttds)

Sequence of GRIP2_3, Q9C0E4 (Q9C0E4 238-339): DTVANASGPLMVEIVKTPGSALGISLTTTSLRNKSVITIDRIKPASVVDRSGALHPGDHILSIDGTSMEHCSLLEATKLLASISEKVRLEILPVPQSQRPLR

Binder	pKd
IYVPEAQTRL [DLGAP4, Q9Y2H0]	below the threshold
TVASEKESVM [SLC1A5, Q15758]	below the threshold
PKTPPTDTSV [KIR3DL3, Q8N743]	below the threshold

Biological target: IL16_3, Q14005
Test: holdup assay
Set-up: key: below the threshold = too weak to quantify, mostly under pKd 3.1 to 4
Conditions: plain residues with an end cap or a label only (N-terminal biotin on a linker: ttds)

Sequence of IL16_3, Q14005 (Q14005 1107-1207): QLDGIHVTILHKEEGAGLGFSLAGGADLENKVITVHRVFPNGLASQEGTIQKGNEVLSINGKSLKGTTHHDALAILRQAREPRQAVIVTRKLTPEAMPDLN

Binder	pKd
IYVPEAQTRL [DLGAP4, Q9Y2H0]	below the threshold
TVASEKESVM [SLC1A5, Q15758]	below the threshold
PKTPPTDTSV [KIR3DL3, Q8N743]	below the threshold

Biological target: Inadl_10, Q8NI35
Test: holdup assay
Set-up: key: below the threshold = too weak to quantify, mostly under pKd 3.1 to 4
Conditions: plain residues with an end cap or a label only (N-terminal biotin on a linker: ttds)

Sequence of Inadl_10, Q8NI35 (Q8NI35 1673-1763): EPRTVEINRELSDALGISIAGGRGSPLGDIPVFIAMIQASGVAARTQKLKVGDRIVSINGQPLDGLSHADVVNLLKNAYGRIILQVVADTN

Binder	pKd
IYVPEAQTRL [DLGAP4, Q9Y2H0]	below the threshold
TVASEKESVM [SLC1A5, Q15758]	below the threshold
PKTPPTDTSV [KIR3DL3, Q8N743]	below the threshold

Biological target: Inadl_3, Q8NI35
Test: holdup assay
Set-up: key: below the threshold = too weak to quantify, mostly under pKd 3.1 to 4
Conditions: plain residues with an end cap or a label only (N-terminal biotin on a linker: ttds)

Sequence of Inadl_3, Q8NI35 (Q8NI35 359-469): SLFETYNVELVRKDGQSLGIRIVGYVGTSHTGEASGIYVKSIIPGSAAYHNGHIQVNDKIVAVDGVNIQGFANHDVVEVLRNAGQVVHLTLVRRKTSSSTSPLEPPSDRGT

Binder	pKd
IYVPEAQTRL [DLGAP4, Q9Y2H0]	below the threshold
TVASEKESVM [SLC1A5, Q15758]	below the threshold
PKTPPTDTSV [KIR3DL3, Q8N743]	below the threshold

Biological target: Inadl_6, Q8NI35
Test: holdup assay
Set-up: key: below the threshold = too weak to quantify, mostly under pKd 3.1 to 4
Conditions: plain residues with an end cap or a label only (N-terminal biotin on a linker: ttds)

Sequence of Inadl_6, Q8NI35 (Q8NI35 1058-1167): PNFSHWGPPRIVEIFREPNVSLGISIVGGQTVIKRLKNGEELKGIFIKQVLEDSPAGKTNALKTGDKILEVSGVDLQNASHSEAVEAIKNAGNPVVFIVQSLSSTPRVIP

Binder	pKd
IYVPEAQTRL [DLGAP4, Q9Y2H0]	below the threshold
TVASEKESVM [SLC1A5, Q15758]	below the threshold
PKTPPTDTSV [KIR3DL3, Q8N743]	below the threshold

Biological target: LIMK2, P53671
Test: holdup assay
Set-up: key: below the threshold = too weak to quantify, mostly under pKd 3.1 to 4
Conditions: plain residues with an end cap or a label only (N-terminal biotin on a linker: ttds)

Sequence of LIMK2, P53671 (P53671 143-248): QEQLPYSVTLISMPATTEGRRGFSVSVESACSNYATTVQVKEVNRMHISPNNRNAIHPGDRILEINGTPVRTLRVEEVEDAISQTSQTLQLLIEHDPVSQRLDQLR

Binder	pKd
IYVPEAQTRL [DLGAP4, Q9Y2H0]	below the threshold
TVASEKESVM [SLC1A5, Q15758]	below the threshold
PKTPPTDTSV [KIR3DL3, Q8N743]	below the threshold

Biological target: LNX1_3, Q8TBB1
Test: holdup assay
Set-up: key: below the threshold = too weak to quantify, mostly under pKd 3.1 to 4
Conditions: plain residues with an end cap or a label only (N-terminal biotin on a linker: ttds)

Sequence of LNX1_3, Q8TBB1 (Q8TBB1 500-596): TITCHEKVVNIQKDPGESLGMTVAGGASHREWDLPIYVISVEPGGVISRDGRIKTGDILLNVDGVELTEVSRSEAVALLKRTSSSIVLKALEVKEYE

Binder	pKd
IYVPEAQTRL [DLGAP4, Q9Y2H0]	below the threshold
TVASEKESVM [SLC1A5, Q15758]	below the threshold
PKTPPTDTSV [KIR3DL3, Q8N743]	below the threshold

Biological target: T5, LRRC7, Q96NW7
T5 sequence (Q96NW7 1440-1537, limits assumed, looked up): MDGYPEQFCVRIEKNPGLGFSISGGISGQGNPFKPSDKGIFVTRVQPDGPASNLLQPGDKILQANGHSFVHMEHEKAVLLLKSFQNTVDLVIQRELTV
Test: holdup assay
Set-up: key: below the threshold = too weak to quantify, mostly under pKd 3.1 to 4
Conditions: plain residues with an end cap or a label only (N-terminal biotin on a linker: ttds)

Binder	pKd
IYVPEAQTRL [DLGAP4, Q9Y2H0]	below the threshold
TVASEKESVM [SLC1A5, Q15758]	below the threshold
PKTPPTDTSV [KIR3DL3, Q8N743]	below the threshold

Biological target: T6, MPP6, Q9NZW5
T6 sequence (Q9NZW5 125-219, limits assumed, looked up): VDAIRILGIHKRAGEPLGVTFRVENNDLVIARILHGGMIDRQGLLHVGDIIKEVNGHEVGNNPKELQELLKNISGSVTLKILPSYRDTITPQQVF
Test: holdup assay
Set-up: key: below the threshold = too weak to quantify, mostly under pKd 3.1 to 4
Conditions: plain residues with an end cap or a label only (N-terminal biotin on a linker: ttds)

Binder	pKd
IYVPEAQTRL [DLGAP4, Q9Y2H0]	below the threshold
TVASEKESVM [SLC1A5, Q15758]	below the threshold
PKTPPTDTSV [KIR3DL3, Q8N743]	below the threshold

Biological target: NHERF4_4, Q86UT5
Test: holdup assay
Set-up: key: below the threshold = too weak to quantify, mostly under pKd 3.1 to 4
Conditions: plain residues with an end cap or a label only (N-terminal biotin on a linker: ttds)

Sequence of NHERF4_4, Q86UT5 (Q86UT5 464-550): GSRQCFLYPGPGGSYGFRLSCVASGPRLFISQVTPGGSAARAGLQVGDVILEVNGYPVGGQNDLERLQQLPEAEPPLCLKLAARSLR

Binder	pKd
IYVPEAQTRL [DLGAP4, Q9Y2H0]	below the threshold
TVASEKESVM [SLC1A5, Q15758]	below the threshold
PKTPPTDTSV [KIR3DL3, Q8N743]	below the threshold

Biological target: T7, PARD3B_1, Q8TEW8
T7 sequence (Q8TEW8 196-299, limits assumed, looked up): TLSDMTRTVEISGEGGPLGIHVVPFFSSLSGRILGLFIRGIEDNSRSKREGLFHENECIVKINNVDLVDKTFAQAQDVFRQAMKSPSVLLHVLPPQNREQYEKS
Test: holdup assay
Set-up: key: below the threshold = too weak to quantify, mostly under pKd 3.1 to 4
Conditions: plain residues with an end cap or a label only (N-terminal biotin on a linker: ttds)

Binder	pKd
IYVPEAQTRL [DLGAP4, Q9Y2H0]	4.16
TVASEKESVM [SLC1A5, Q15758]	3.61
PKTPPTDTSV [KIR3DL3, Q8N743]	below the threshold

Biological target: T8, PDZRN3_1, Q9UPQ7
T8 sequence (Q9UPQ7 244-349, limits assumed, looked up): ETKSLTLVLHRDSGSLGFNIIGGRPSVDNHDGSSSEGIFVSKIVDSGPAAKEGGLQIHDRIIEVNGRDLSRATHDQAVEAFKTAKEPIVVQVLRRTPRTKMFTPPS
Test: holdup assay
Set-up: key: below the threshold = too weak to quantify, mostly under pKd 3.1 to 4
Conditions: plain residues with an end cap or a label only (N-terminal biotin on a linker: ttds)

Binder	pKd
IYVPEAQTRL [DLGAP4, Q9Y2H0]	3.94
TVASEKESVM [SLC1A5, Q15758]	3.61
PKTPPTDTSV [KIR3DL3, Q8N743]	below the threshold

Biological target: PDZRN4_1, Q6ZMN7
Test: holdup assay
Set-up: key: below the threshold = too weak to quantify, mostly under pKd 3.1 to 4
Conditions: plain residues with an end cap or a label only (N-terminal biotin on a linker: ttds)

Sequence of PDZRN4_1, Q6ZMN7 (Q6ZMN7 213-318): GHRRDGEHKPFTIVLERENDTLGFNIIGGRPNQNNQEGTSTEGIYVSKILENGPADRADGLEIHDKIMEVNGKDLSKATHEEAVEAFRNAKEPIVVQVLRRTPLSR

Binder	pKd
IYVPEAQTRL [DLGAP4, Q9Y2H0]	4.08
TVASEKESVM [SLC1A5, Q15758]	3.87
PKTPPTDTSV [KIR3DL3, Q8N743]	below the threshold

Biological target: PICK1, Q9NRD5
Test: holdup assay
Set-up: key: below the threshold = too weak to quantify, mostly under pKd 3.1 to 4
Conditions: plain residues with an end cap or a label only (N-terminal biotin on a linker: ttds)

Sequence of PICK1, Q9NRD5 (Q9NRD5 17-115): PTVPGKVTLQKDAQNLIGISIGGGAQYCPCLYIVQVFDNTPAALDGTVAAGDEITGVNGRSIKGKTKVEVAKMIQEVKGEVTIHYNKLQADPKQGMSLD

Binder	pKd
IYVPEAQTRL [DLGAP4, Q9Y2H0]	below the threshold
TVASEKESVM [SLC1A5, Q15758]	below the threshold
PKTPPTDTSV [KIR3DL3, Q8N743]	below the threshold

Biological target: T9, SIPA1L2, Q9P2F8
T9 sequence (Q9P2F8 945-1036, limits assumed, looked up): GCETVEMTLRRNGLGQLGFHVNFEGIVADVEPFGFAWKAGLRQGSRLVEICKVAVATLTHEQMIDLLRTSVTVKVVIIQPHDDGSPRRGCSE
Test: holdup assay
Set-up: key: below the threshold = too weak to quantify, mostly under pKd 3.1 to 4
Conditions: plain residues with an end cap or a label only (N-terminal biotin on a linker: ttds)

Binder	pKd
IYVPEAQTRL [DLGAP4, Q9Y2H0]	below the threshold
TVASEKESVM [SLC1A5, Q15758]	below the threshold
PKTPPTDTSV [KIR3DL3, Q8N743]	below the threshold

Biological target: T10, SNTB1, Q13884
T10 sequence (Q13884 107-205, limits assumed, looked up): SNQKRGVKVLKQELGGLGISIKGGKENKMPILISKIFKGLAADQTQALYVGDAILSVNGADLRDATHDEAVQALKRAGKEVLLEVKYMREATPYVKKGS
Test: holdup assay
Set-up: key: below the threshold = too weak to quantify, mostly under pKd 3.1 to 4
Conditions: plain residues with an end cap or a label only (N-terminal biotin on a linker: ttds)

Binder	pKd
IYVPEAQTRL [DLGAP4, Q9Y2H0]	4.2
TVASEKESVM [SLC1A5, Q15758]	4.07
PKTPPTDTSV [KIR3DL3, Q8N743]	below the threshold

Biological target: T11, SNTG2, Q9NY99
T11 sequence (Q9NY99 68-166, limits assumed, looked up): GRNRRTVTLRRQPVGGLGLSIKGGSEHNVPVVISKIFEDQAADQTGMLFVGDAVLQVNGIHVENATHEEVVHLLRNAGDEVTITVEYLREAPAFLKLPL
Test: holdup assay
Set-up: key: below the threshold = too weak to quantify, mostly under pKd 3.1 to 4
Conditions: plain residues with an end cap or a label only (N-terminal biotin on a linker: ttds)

Binder	pKd
IYVPEAQTRL [DLGAP4, Q9Y2H0]	4.67
TVASEKESVM [SLC1A5, Q15758]	3.75
PKTPPTDTSV [KIR3DL3, Q8N743]	3.73

Biological target: SNX27, Q96L92
Test: holdup assay
Set-up: key: below the threshold = too weak to quantify, mostly under pKd 3.1 to 4
Conditions: plain residues with an end cap or a label only (N-terminal biotin on a linker: ttds)

Binder	pKd
IYVPEAQTRL [DLGAP4, Q9Y2H0]	5.41
TVASEKESVM [SLC1A5, Q15758]	5.29
PKTPPTDTSV [KIR3DL3, Q8N743]	4.28
